One molecule from publication PMC8268162, “A Master Regulator BrpR Coordinates the Expression of Multiple Loci for Robust Biofilm and Rugose Colony Development in Vibrio vulnificus” can be followed below.

The target in the series is T1, BrpR-His6.
T1 chain: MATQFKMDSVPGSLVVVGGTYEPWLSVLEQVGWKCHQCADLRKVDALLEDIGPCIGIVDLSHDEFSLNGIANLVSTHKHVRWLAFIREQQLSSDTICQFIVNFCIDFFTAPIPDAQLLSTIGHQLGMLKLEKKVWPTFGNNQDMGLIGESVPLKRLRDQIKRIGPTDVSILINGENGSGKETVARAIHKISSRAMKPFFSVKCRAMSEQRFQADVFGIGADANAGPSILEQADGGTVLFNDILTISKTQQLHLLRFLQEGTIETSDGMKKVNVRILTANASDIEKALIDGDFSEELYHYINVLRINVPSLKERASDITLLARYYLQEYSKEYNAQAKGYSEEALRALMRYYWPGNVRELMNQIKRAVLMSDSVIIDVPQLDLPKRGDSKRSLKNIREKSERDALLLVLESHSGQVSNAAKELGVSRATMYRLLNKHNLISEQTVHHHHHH
Description: EMSA; 50 uM c-di-GMP; 40 mM Tris-Cl pH 7.9, 100 mM KCl, 10 mM MgCl2, 1 mM DTT, 0.1 mM EDTA, 0.1 ug/ul BSA, 0.1 ug poly(dI-dC) in 20 ul, 25 min at 30 C; EMSA DNA 5 nM, footprinting DNA 40 nM. To be noted: protein: recombinant; tags: C-terminal His6; label: 6-FAM on reverse strand; blunt. In general terms: In EMSA bound probe runs differently from free probe, usually more slowly.

B1: BRPBwt (dsDNA)
DNA 1: GTTTGCAATGTCTCATTGGTGCGACGAATGCTTTGGCG
DNA 2: CGCCAAAGCATTCGTCGCACCAATGAGACATTGCAAAC
For B1, the binding result is given as “binds”.
